From article PMC11241375, “In Silico Screening of Bioactive Peptides in Stout Beer and Analysis of ACE Inhibitory Activity” (Foods, 2024)
pIC50: −log10 of the molar value. Like-named read-outs stand apart in the source and are kept apart here. No end group written: not given here.

Experiments:
ACE [1] = molecular target: T1, ACE (Homo sapiens, UniProt P12821); assay: ACEI activity in vitro (ACE activity assay kit); assay type: biochemical; conditions: 10 μL ACE + 40 μL inhibitor + 50 μL substrate, fluorescence ex 320 nm/em 405 nm, 37 °C, 30 min, synthesized peptide, triplicate, mean ± SD
T1 construct: purchased Sigma-Aldrich
T1 sequence (P12821 30-1306, species assumed): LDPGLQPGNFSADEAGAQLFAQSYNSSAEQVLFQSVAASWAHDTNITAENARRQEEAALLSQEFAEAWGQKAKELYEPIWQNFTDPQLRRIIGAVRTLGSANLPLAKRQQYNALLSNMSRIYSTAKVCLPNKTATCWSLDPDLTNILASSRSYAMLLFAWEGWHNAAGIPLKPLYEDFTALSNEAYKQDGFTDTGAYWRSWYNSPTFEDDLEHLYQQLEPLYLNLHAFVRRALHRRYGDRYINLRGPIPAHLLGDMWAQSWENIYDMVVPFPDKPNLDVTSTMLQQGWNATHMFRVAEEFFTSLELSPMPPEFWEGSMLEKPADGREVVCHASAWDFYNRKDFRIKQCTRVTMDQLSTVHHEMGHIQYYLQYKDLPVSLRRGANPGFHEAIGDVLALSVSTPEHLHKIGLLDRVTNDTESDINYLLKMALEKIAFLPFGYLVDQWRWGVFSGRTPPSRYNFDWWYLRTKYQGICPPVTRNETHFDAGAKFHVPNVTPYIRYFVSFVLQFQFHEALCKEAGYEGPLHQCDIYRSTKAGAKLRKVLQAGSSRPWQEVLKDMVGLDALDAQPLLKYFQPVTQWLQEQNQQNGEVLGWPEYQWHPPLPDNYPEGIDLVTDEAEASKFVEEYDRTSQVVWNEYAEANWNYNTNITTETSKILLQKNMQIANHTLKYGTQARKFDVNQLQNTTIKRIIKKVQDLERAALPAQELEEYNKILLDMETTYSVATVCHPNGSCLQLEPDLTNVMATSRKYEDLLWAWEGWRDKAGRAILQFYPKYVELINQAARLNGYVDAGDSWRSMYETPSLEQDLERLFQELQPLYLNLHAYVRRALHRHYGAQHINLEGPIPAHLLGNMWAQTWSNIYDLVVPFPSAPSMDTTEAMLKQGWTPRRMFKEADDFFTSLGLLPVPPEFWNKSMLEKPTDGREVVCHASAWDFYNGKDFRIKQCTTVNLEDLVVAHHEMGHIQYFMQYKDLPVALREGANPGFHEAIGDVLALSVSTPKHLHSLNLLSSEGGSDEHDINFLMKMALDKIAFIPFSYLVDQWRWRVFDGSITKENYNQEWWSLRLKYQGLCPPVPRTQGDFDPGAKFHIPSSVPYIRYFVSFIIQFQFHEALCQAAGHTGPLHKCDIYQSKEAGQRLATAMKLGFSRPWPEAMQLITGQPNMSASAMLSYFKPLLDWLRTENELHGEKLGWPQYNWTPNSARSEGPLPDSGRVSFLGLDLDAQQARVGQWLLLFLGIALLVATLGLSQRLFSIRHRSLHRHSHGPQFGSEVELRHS
Description: ACEI activity determination was determined using an assay kit. Briefly, 10 μL of ACE and 40 μL of the inhibitor were added to the microplate and mixed thoroughly, then 50 μL of the substrate was added to start the reaction. The fluorescence was detected at an excitation wavelength of 320 nm and an emission wavelength of 405 nm at 37 °C for 30 min. The ACE activity of the peptide was calculated as follows:ACEI activity = [(KStd − KSample)/KStd] × DF × 100% where KSample means the slope of the sample curve after subtracting the blank. (RFU/min); KStd means the slope of the standard curve after subtracting the blank (RFU/min); DF means the dilution factor.
Each experiment was conducted in triplicate, the data were presented as mean ± standard deviation. SYBYL-X 2.1.1 software was utilized for evaluating the molecular docking visualization. LigPlot 1.4.5 software was employed to illustrate the 2D interactions. MD simulation data analysis was performed using GROMACS 2022.3 software.

ACE [2] = molecular target: T1, ACE; conditions: cited from earlier work
Text: Recently, several ACEI peptides have been identified and evaluated in brewed wine. Wu et al. discovered a polypeptide in Chinese Baijiu for the first time, which indicated an ACE inhibitory effect with an IC50 of […] [11]. […] Beer is one of the most globally cons ... || In this study, peptides in stout beer were identified using UPLC-Q-Orbitrap-MS^2, and a total of 41 peptides with ALC ≥ 85% were selected (Table 1). The peptides PMAPLPRSGPE and […] from Italian beer, LPQQQAQFK, STEWHLD, PPPVHD, LVLPGELAK, LAVMQQQQQQ, PPPVHDTD, PPVPHDTD, LPEDAKVE, HAVSEGTKAVT, LPGELAK, PMAPLPRSGEP, TVSGF, LNFDPNR, LALDTRVG, LDTRVGV, and RVALVY from draft beer, which were previously identified, also appeared in our results. The polypeptides present in beer primarily originate from malt protein. Previous studies have shown that the soluble protein content in m ...

[3] = peptides identified from Qingke Baijiu
[4] = known ACEI peptides in BIOPEP/AHTPDB

Row | Substance | pIC50 (ACE [2]; [3]) | pIC50 (ACE [2]; [4]) | other results
1 | DLGGFFGFQR [DLGGFFGFQR] | – | – | pIC50 (ACE [1]): 4.61
2 | FPLQPHQP [peptide from Qingke Baijiu, reference compound] | 5.30 | – | –
3 | LNFDPNR [peptide of stout beer; already known ACEI peptide] | – | 4.41 | –
4 | LPQQQAQFK [peptide of stout beer; already known ACEI peptide] | – | 4.58 | –
5 | LPVGP [peptide from Qingke Baijiu, reference compound] | 5.04 | – | –
